Laboratory results as given in patent US20240270826A1 (NATIONAL RESEARCH COUNCIL OF CANADA, published 2024).

Columns and labels:
[1] = molecular target: T1, SARS-CoV-2 S2 (aa686-1208) (Wuhan) (SARS-CoV-2 Wuhan, UniProt P0DTC2 686-1208); assay: ELISA
T1 construct: NRC; FLAG, 6xHis tags

[2] = molecular target: SARS-CoV-2 S1-NTD (aa16-305) (SARS-CoV-2 Wuhan, UniProt P0DTC2 16-305); assay: ELISA
[3] = molecular target: T2, SARS-CoV-2 S on CHO-S cells (SARS-CoV-2, UniProt P0DTC2 14-1273); assay: flow cytometry, CHO-S cells
T2 construct: whole, on cells

[4] = molecular target: T3, SARS-CoV-2 spike trimer S (Wuhan, SmT1) (SARS-CoV-2 Wuhan); assay: SPR, antigen on chip
T3 construct: extracellular domain

[5] = molecular target: T4, SARS-CoV-2 S1 (aa16-685) (Wuhan) (SARS-CoV-2 Wuhan, UniProt P0DTC2 16-685); assay: SPR, antigen on chip
T4 construct: NRC; FLAG, 6xHis tags

[6] = molecular target: T1, SARS-CoV-2 S2 (aa686-1208) (Wuhan); assay: SPR, antigen on chip
[7] = molecular target: SARS-CoV-2 S1-RBD fused to human Fc (S1-RBD-Fc) (SARS-CoV-2 Wuhan; human); assay: SPR, antigen on chip

| Binder | binding result [1] | binding result [2] | Bmax [3] | EC50 [3] [nM] | Kd [4] [nM] | koff [4] [s⁻¹] | kon [4] [M⁻¹ s⁻¹] | Kd [5] [nM] | koff [5] [s⁻¹] | kon [5] [M⁻¹ s⁻¹] | binding result [6] | Kd [7] [nM] | koff [7] [s⁻¹] | kon [7] [M⁻¹ s⁻¹] |
| --- | --- | --- | --- | --- | --- | --- | --- | --- | --- | --- | --- | --- | --- | --- |
| NRCoV2-1d VHH-Fc (Fc fusion, bivalent VHH-Fc) EVQLVESGGGSVQPGGSLRLSCAASGSTLDYYAIGWFRQAPGKEREWVSSVSSSDGNTLYADSVKGRFTISRDNAKNTVYLQMNSLKAEDTAVYVCAADYSMRPFAVGRWHRDYEYWGQGTQVTVSS | no binding (tested: 13 nM) | no binding (tested: 13 nM) | 13800 | 1.1 |  |  |  |  |  |  |  |  |  |  |
| NRCoV2-07 VHH-Fc (Fc fusion, bivalent VHH-Fc) QVQLVQSGGGLVQPGGSLRLSCAASGVTLDYYAIGWFRQAPGKEREAVSCISSNGRRNHYVASVRGRFTISRDNAKSTVYLQMNSLKPEDTAVYYCAAVQDVHGDNYYCTSPNEYNVWGQGTQVTVSS | no binding (tested: 13 nM) | no binding (tested: 13 nM) | 10600 | 1.1 |  |  |  |  |  |  |  |  |  |  |
| NRCoV2-20 VHH-Fc (Fc fusion, bivalent VHH-Fc) EVQLQQSGGGLVQPGGSLRLSCAASGRTFSNYVVGWFRQAPQAPGKDHEFVAVISGSDTETYYADSVKGRFTISRDNAKNTVYLQMNSLKPEDTAVYYCAADRGMSYYYTRATEYYYWGQGTQVTVSS | no binding (tested: 13 nM) | no binding (tested: 13 nM) | 12100 | 0.7 |  |  |  |  |  |  |  |  |  |  |
| NRCoV2-18 VHH-Fc (Fc fusion, bivalent VHH-Fc) EVQLVESGGGLVQAGGSLRLSCVASGITISGYNMAWWRQTRGKQTERVAFINSGGSTTYSDSVKGRFTISRDNGKNTAYLQMNSLNAEDTADYFCSLHTSHDYWGQGTQVTVSS | no binding (tested: 13 nM) | no binding (tested: 13 nM) | 18300 | 0.9 |  |  |  |  |  |  |  |  |  |  |
| NRCoV2-SR01 VHH-Fc (Fc fusion, bivalent VHH-Fc) EVQLVQSGGGSVQAGGSLRLSCVASGFTFDNYAIGWFRQAPGKEREGVSCISGNGGVTIYADSVKGRFTISRDNAKNLVYLQMNSLKPEDTAVYYCAATGIRSTWSVYGCSRLAGPYDYWGQGTQVTVSS | no binding (tested: 13 nM) |  | 15400 | 6.6 |  |  |  |  |  |  |  |  |  |  |
| NRCoV2-SR13 VHH-Fc (Fc fusion, bivalent VHH-Fc) EVQLVESGGGLVTTGGSLRLSCATSGSRFGSKHMAWYRQAPGKQRDLVAAISSGGSTHYGSSVKGRFTISRDNAKSTVYLQMNSLNPEDTAVFYCNMGGWDYRSNTYIPGSRSDYWGQGTQVTVSS | no binding (tested: 13 nM) |  | 17800 | 7 |  |  |  |  |  |  |  |  |  |  |
| NRCoV2-SR02 VHH-Fc (Fc fusion, bivalent VHH-Fc) EVQLVDSGGGLVQAGGSLRLSCTASEFTLNYYSIGWFRQSPGKEREGVSCIRYSGGGIDYADSVKGRFTISRDNAKNTVYLTMNSLKPEDTAVYYCAADRLYSRACPTAGGRNYWGQGTQVTVSS | no binding (tested: 13 nM) |  | 14400 | 1.2 |  |  |  |  |  |  |  |  |  |  |
| NRCoV2-18 VHH (VHH) VHH: EVQLVESGGGLVQAGGSLRLSCVASGITISGYNMAWWRQTRGKQTERVAFINSGGSTTYSDSVKGRFTISRDNGKNTAYLQMNSLNAEDTADYFCSLHTSHDYWGQGTQVTVSS |  |  |  |  | 0.384 | 0.000152 | 395000 | 0.536 | 0.000165 | 308000 | no binding | 0.736 | 0.000197 | 268000 |
| NRCoV2-20 VHH (VHH) VHH: EVQLQQSGGGLVQPGGSLRLSCAASGRTFSNYVVGWFRQAPQAPGKDHEFVAVISGSDTETYYADSVKGRFTISRDNAKNTVYLQMNSLKPEDTAVYYCAADRGMSYYYTRATEYYYWGQGTQVTVSS |  |  |  |  | 6.73 | 0.0159 | 2.37e+06 | 9.63 | 0.0189 | 1.96e+06 | no binding | 8.61 | 0.0123 | 1.43e+06 |
| NRCoV2-1d VHH (VHH) VHH: EVQLVESGGGSVQPGGSLRLSCAASGSTLDYYAIGWFRQAPGKEREWVSSVSSSDGNTLYADSVKGRFTISRDNAKNTVYLQMNSLKAEDTAVYVCAADYSMRPFAVGRWHRDYEYWGQGTQVTVSS |  |  |  |  | 1.1 | 0.00117 | 1.06e+06 | 1.32 | 0.00114 | 867000 | no binding | 2.1 | 0.00118 | 562000 |
| NRCoV2-02 VHH (VHH) VHH: EVQLVESGGGLVQAGGSLRLSCAASGFTFSNYAMNWVRQAPGKGLEWVSGISGRGDDTRYADSVKGRFTISRDNAKNTLFLQMRSLRPEDTGVYRCTKGPDLYYFGSGYSDRGQGTQVTVSS |  |  |  |  | 0.661 | 0.00141 | 2.14e+06 | 0.659 | 0.00138 | 2.1e+06 | no binding | 0.773 | 0.00141 | 1.83e+06 |
| NRCoV2-03 VHH (VHH) VHH: EVQLVSSGGGLVQAGGSLRLSCTASGITFSYYAMGWYRQAPGQPRELVASMSNMDSTIYADSVKGRFTISRDNAKTTIYLQMNNLKPEDTAVYFCNIYGPTYSTRRNEYWGQGTQVTVSS |  |  |  |  | 1.34 | 0.000334 | 250000 | 1.09 | 0.000263 | 241000 | no binding | 1.53 | 0.000255 | 166000 |
| NRCoV2-04 VHH (VHH) VHH: AVQLVDSGGGLVQPGGSLRLSCAASGSPFSNVVMAWYRQAPGKQRERVAFISGGGIADYIMSVKGRFTISRDNAKNTVYLQMNSLKPEDTAVYYCWSSYESTWGQGTQVTVSS |  |  |  |  | 10 | 0.0198 | 1.97e+06 | 11.2 | 0.018 | 1.61e+06 | no binding | 12.5 | 0.0192 | 1.53e+06 |
| NRCoV2-05 VHH (VHH) VHH: EVKLVQSGGGLVQPGGSLRLSCAASGFIFSNYAMNWVRQAPGKGLEWVSGINSGGGDTRYADSVKGRFTVSRDNAKNTLYLQMNSLKPEDTGVYYCSKGPVSSYYGSGYDYRGQGTQVTVSS |  |  |  |  | 1.72 | 0.00743 | 4.33e+06 | 2 | 0.00806 | 4.03e+06 | no binding | 2.33 | 0.00585 | 2.51e+06 |
| NRCoV2-06 VHH (VHH) VHH: EVQLVQSGGGLVQAGESLRLSCAASVSTFSSYAMGWYRQAPGKQRELVASIGFVGATYYIDSVKGRFTISRDNAKKTAYLQMNDLKPDDTAVYYCNARHYGGSEYWGQGTQVTVSS |  |  |  |  | 155 | 0.00469 | 30200 | 129 | 0.0133 | 104000 | no binding | 69.9 | 0.00415 | 59400 |
| NRCoV2-07 VHH (VHH) VHH: QVQLVQSGGGLVQPGGSLRLSCAASGVTLDYYAIGWFRQAPGKEREAVSCISSNGRRNHYVASVRGRFTISRDNAKSTVYLQMNSLKPEDTAVYYCAAVQDVHGDNYYCTSPNEYNVWGQGTQVTVSS |  |  |  |  | 1.15 | 0.000403 | 350000 | 1.02 | 0.000308 | 301000 | no binding | 0.894 | 0.000284 | 318000 |
| NRCoV2-10 VHH (VHH) VHH: QLQLQESGGGLVQPGGSLTLSCAASGNTFSRSNMHWYRQAPGAQREWVAAISSRGISTYAYSAKGRFTISRDNAKNTVSLQMNSLKPEDTAVYYCYAADDLGDYWGQGTQVTVSS |  |  |  |  | 0.192 | 9.27e-05 | 483000 | 0.213 | 9.54e-05 | 448000 | no binding | 0.266 | 9.32e-05 | 351000 |
| NRCoV2-14 VHH (VHH) VHH: EVQLVSSGGGLVQAGGSLRLSCEASGTTFSHYAVGWYRQAPGKQREWVASISVFGSTTYGGSVAGRFTISRDNDKNTVDLQMNSLKPEDTAVYYCHAVNADIGGDYWGQGTQVTVSS |  |  |  |  | 3.1 | 0.00164 | 528000 | 3.49 | 0.00112 | 319000 | no binding | 3.61 | 0.000944 | 261000 |
| NRCoV2-15 VHH (VHH) VHH: EVQLVSSGGGLVEAGGSLRLSCIASGSTSGRNTMGWFRQAPGKQREWVAIVSTSGATNYAGSVKGRFTLSRDNAKNAVYLQMNNLKPEDTAVYYCYAAYGGGGDYWGQGTQVTVSS |  |  |  |  | 0.313 | 0.000221 | 706000 | 0.333 | 0.000225 | 675000 | no binding | 0.342 | 0.000233 | 682000 |
